# Laboratory results: patent US20240010747A1, “ANTI-MRP4 (ENCODED BY ABCC4 GENE) ANTIBODIES AND USES THEREOF” (Kenjockety Biotechnology, Inc., priority 2020, published 2024)
# T1: human ABCC4 (Homo sapiens, UniProt O15439)
# T1 construct: expressed in transfected cells
# T1 sequence (O15439 1-1325): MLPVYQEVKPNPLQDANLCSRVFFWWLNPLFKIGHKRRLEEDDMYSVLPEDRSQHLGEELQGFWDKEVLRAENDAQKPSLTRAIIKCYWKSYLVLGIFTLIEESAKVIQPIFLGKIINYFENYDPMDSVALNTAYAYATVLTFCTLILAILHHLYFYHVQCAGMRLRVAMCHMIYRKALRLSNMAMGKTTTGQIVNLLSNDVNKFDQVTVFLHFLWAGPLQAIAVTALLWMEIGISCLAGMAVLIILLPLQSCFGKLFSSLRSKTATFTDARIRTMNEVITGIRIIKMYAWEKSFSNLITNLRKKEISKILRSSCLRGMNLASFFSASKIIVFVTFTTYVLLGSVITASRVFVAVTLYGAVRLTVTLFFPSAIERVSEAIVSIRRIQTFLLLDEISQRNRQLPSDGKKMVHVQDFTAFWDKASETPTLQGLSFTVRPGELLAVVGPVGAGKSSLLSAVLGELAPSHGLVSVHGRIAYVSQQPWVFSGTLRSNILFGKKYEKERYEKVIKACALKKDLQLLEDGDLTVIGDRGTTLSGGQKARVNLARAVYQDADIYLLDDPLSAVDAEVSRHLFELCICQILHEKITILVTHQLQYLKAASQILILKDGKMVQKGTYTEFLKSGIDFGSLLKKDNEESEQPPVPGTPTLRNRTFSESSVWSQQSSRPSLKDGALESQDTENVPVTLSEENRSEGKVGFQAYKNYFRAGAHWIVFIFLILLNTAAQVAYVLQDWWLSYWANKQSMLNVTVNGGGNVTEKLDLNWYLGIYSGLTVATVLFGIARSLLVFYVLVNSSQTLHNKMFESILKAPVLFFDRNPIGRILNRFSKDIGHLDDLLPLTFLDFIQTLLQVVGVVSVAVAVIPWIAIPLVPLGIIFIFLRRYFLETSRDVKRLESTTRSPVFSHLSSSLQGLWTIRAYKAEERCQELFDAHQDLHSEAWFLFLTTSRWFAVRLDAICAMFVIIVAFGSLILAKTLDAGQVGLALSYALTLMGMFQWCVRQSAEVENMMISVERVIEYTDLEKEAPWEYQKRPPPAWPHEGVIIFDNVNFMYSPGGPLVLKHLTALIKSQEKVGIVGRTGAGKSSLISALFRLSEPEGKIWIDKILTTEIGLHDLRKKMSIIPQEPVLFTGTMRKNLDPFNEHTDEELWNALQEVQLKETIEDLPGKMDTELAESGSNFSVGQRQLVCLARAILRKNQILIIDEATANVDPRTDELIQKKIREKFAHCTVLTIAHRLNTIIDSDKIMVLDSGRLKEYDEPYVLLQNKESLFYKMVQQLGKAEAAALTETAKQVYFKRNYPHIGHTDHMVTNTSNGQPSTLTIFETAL
# B1: C4.972: anti-ABCC4 antibody raised in rats; VH SEQ ID NO: 11, VL SEQ ID NO: 132 (antibody, V domains shown)
# VH: EVQLKESGPGLVQPSETLSLTCTVSGFSLTSYNVHWVRQPPGKGLEWMGVMWSGGSTDYSSALKSRLSISRDTSKNQVFLKMNSLQSEDTTTYYCARDRGGYYYDGYPHDFVYWGQGVMVTVSS
# VL: EIVIIQSPALAVSLGQRATISCKTNQNVDYYGNSYIHWYQQKPGQQPKLLIYLASNLASGIPARFSGRGSGTDFTLTIDPVEADDPATYYCQQSRNLPFTFGSGTKLELK
# B2: C4.985: anti-ABCC4 antibody raised in rats; VH SEQ ID NO: 14, VL SEQ ID NO: 134 (antibody, V domains shown)
# VH: EVQLVESGGGLVQPGRSLKLSCTASGFTFNKNWMAWIRQAPGKGLEWVASITNTGGNTYYPDSVKGRFTVSRDQTISTLYLQMNSLRSEDTATYFCTRERIGSGYYVMDAWGRGASVTVSS
# VL: DTVLTQSPALTVSPGERVTISCRASESVTSFMNWYQQKPGQQPKLLIYLASDLESGVPARFSGSGSGADFTLTIDPVEADDTATYYCQQSWIDPPTFGTGTKLELK
# B3: C4.987: anti-ABCC4 antibody raised in rats; VH SEQ ID NO: 15, VL SEQ ID NO: 135 (antibody, V domains shown)
# VH: EVQLVESGGGLVQPGRSMKLSCAASGFTFSNYYMAWVRQAPTKGLEWVASISTGGGNTHYRDSVKGRFTISRDNAKSTLYLQMDSLRSEETATYYCARGEDRYKGVFAYWGQGTLVTVSS
# VL: DVQMTQSPSNLAASPGESVSINCKASKSISKYLAWYQQKPGKANKLLIYSGSTLQSGTPSRFSGSGSGTDFTLTIRNLEPEDFGLYYCQHHNEYPPTFGAGTKLELK
# B4: C4.991: anti-ABCC4 antibody raised in rats; VH SEQ ID NO: 16, VL SEQ ID NO: 136 (antibody, V domains shown)
# VH: EVKLVESGGGLVQPGRSLQVSCVASGFIFTDYYMAWVRQAPTKGLEWVAYINYDGGSTYYGDSVKGRFTISRDNAKSTLYLQMNSLRSEDMATYYCARRDYGSKFDNWGQGTLVTVSS
# VL: DIVMTQSPSLLSASVGDRVTLTCKGSQNINNFLAWYQQKRGEAPKLLIYKTNSLHTGIPSRFSGSGSGTEYTLTISSLHSEDLATYYCYQYNNGYTFGAGTKLELK
# B5: C4.1000: anti-ABCC4 antibody raised in rats; VH SEQ ID NO: 18, VL SEQ ID NO: 138 (antibody, V domains shown)
# VH: QVQLTESGPGLVQPSQTLSLTCTISGFSLTSYGVSWVRQPPGKGLEWIGAIWSGGGTNYDSALKSRLSISRDTSKSQVLLKMNSLQTEDTAMYFCASGDWFAYWGQGTLVTVSS
# VL: DIQMTQSPPSLSASLGDKVTITCQASQNINKYIAWFQQKPGKAPRLLIRYTSTLESGTPSRFSGSGSGRDYSFSISTVESEDIASYYCLQYVNLYTFGAGTKLELK
# B6: C4.947: anti-ABCC4 antibody raised in rats; VH SEQ ID NO: 5, VL SEQ ID NO: 128 (antibody, V domains shown)
# VH: EVKLVESGGGLVQPGGSMRLSCAASGFTFTDFYMNWIRQPAGKAPEWLGFIRNKANAYTTAYNPSVKGRFTISRDNAQNMLYLQMNTLRAEDTATYYCARSNYGFDYWGQGVMVTVSS
# VL: DVAMTQTPPSLSVAIGQSVSISCKSSQSLVYSDGKTYLHWLLQSSGRSPKRLIYQVSNLDSGVPDRFSGTGSQKDFTLKISRVEAKDLGVYYCAQTTHFPFTFGSGTKLEIK
# B7: C4.884: anti-ABCC4 antibody raised in rats; VH SEQ ID NO: 1, VL SEQ ID NO: 124 (antibody, V domains shown)
# VH: EVQLVESGPGLVQPSQTLSLTCTVSGFSLTSNSVHWVRQPPGKGLEWIGAIWSGGSTDYNSALKSRLSISRDTSKSQVFLKMNSLQTEDTAIYFCTGLIFPYWGQGASVTVSS
# VL: DVVMTQTPSILSGTLGRSVSISCRSSQSLLDSDGTTYLYWFLQRPGQSPQRLIYLVSNLGSGVPNRFSGSGSGTDFTLKISGVEAEDLGVYYCMQATHVPFTFGSGTKLEIK
# Tested on: cynomolgus ABCC4
# Test: Flow cytometry (FACS) binding to C6 cells stably transfected to express cynomolgus ABCC4 (Table 3 study)
# Design: key to Cynomolgus ABCC4 binding: Negative (−) is defined as maximum response (Rmax(MFI)) below background level; Positive (+) is defined as MFI>1000
# Conditions: C6 cells stably transfected to express cynomolgus ABCC4, FACS; Table 3
# Method: (§1) Binding titration of recombinant antibodies to ABCC4 transfectants was performed by serial dilution of antibodies from about 666 nM. Diluted antibody in flow cytometry buffer was incubated with cells on ice for 30 min. After 2 washes with flow cytometry buffer, bound antibody was detected with PE-labeled F(ab′)2 fragment goat anti-human IgG (Jackson ImmunoResearch) diluted 1:200 in flow cytometry buffer and incubated with cells for 20 min on ice. After 2 washes with flow cytometry buffer fluorescence was measured on an Attune N×T flow cytometer. Data were analyzed with GraphPad Prism 8.0 software to determine EC50's.
# (§2) Human embryonic kidney HEK 293T cells and murine C6 (ATCC CCL-107) were transfected with human or cynomolgus ABCC4 cDNA with C-terminal fused FLAG tag in a pMONO-hygro vector with Lipofectamine 3000 (Invitrogen #L3000001). The cells were treated with 0.2 mg/ml and 0.5 mg/ml hygromycin respectively for about 2 weeks while cultivated in DMEM and 10% FBS with 0.2 mg/ml hygromycin and 0.5 mg/ml hygromycin, respectively. The cells were washed with PBS, and stained with […] of anti-FLAG-PE after fixing and permeablization. Clones expressing ABCC4 were single-cell sorted into 200 μl DMEM with 10% FBS using a BD Aria FACS machine and cultivated in 96 well plates using standard techniques in an incubator at 37° C. and 5% CO 2. Two weeks later clones expressing high levels of ABCC4 were screened and amplified.
# (§3) Antibody binding to cells was evaluated by flow cytometry. Murine C6 cells stably transfected to express human or cynomolgus ABCC4 were washed once in flow cytometry buffer (PBS+2% FBS+0.02% sodium azide), resuspended at 2×10^6 cells/mL in flow cytometry buffer, and dispensed into 96-well microtiter plates at 0.1 mL/well. Recombinant antibodies were added to cells at 5 ug/mL for initial binding confirmation, or serially diluted from 100 ug/mL in flow cytometry buffer. After incubating cells on ice for 30 min, cells were washed twice with flow cytometry buffer. Bound antibody was detected with PE-labeled F(ab′)2 fragment goat anti-human IgG (Jackson ImmunoResearch) and evaluated on an Attune N×T flow cytometer. EC50 is calculated to be the concentration of antibody that gives half maximal response.
# (§4) Table 3 lists the following characteristics of the rat anti-ABCC4 antibodies tested: binding to C6 cells stably transfected to express human ABCC4 measured by FACS and binding to C6 cells stably transfected to express cynomolgus ABCC4 measured by FACS. Negative (−) is defined as maximum response (Rmax(MFI)) below background level. Positive (+) is defined as MFI>1000.
row,Molecule,Cynomolgus ABCC4 binding
1,B1,−
2,B2,−
3,B3,−
4,B4,−
5,B5,−
6,B6,−
7,B7,−

# Molecular target: T1, human ABCC4
# Test: Flow cytometry (FACS) binding to C6 cells stably transfected to express human ABCC4 (Table 3 study)
# Conditions: C6 cells stably transfected to express human ABCC4, FACS; Table 3
# Method: as §1, §2, §3, §4
row,Molecule,Human ABCC4 binding
1,B1,+ (Positive (+) is defined as MFI>1000)
2,B2,+ (Positive (+) is defined as MFI>1000)
3,B3,+ (Positive (+) is defined as MFI>1000)
4,B4,+ (Positive (+) is defined as MFI>1000)
5,B5,+ (Positive (+) is defined as MFI>1000)
6,B6,+ (Positive (+) is defined as MFI>1000)
7,B7,+ (Positive (+) is defined as MFI>1000)

# Tested on: cynomolgus ABCC4
# Test: Flow cytometry (FACS) binding to C6 cells stably transfected to express cynomolgus ABCC4 (different experiment, different C6.cC4 cell line, Table 4)
# Design: key to Cynomolgus ABCC4 binding: Negative (−)=Rmax (MFI) below background level; Positive (+)=MFI>3× background level
# Conditions: Table 4 study, stated in words
# How it was run: (§5)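 Murine C6 cells stably expressing FLAG-tagged human or cynomolgus ABCC4 incubated 30 min on ice with antibodies, either 5 ug/mL or serially diluted from 100 ug/mL, in PBS+2% FBS+0.02% azide. Detection with PE anti-human IgG F(ab′)2 by flow cytometry; EC50 at half-maximal MFI; negative below background, positive >3× background.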
row,Molecule,binding to cynomolgus ABCC4 expressed on cell surface
1,B1,bind to both human and cynomolgus ABCC4

# Same assay, conditions: different C6.cC4 cell line, C6 cells stably transfected to express cynomolgus ABCC4, FACS; Table 4
row,Molecule,Cynomolgus ABCC4 binding
1,B1,+ (Positive (+)=MFI>3× background level)
2,B2,−
3,B3,−
4,B4,−
5,B5,−
6,B6,−
7,B7,−

# Molecular target: T1, human ABCC4
# Test: Flow cytometry (FACS) binding to C6 cells stably transfected to express human ABCC4 (different experiment, Table 4)
# Conditions: C6 cells stably transfected to express human ABCC4, FACS; different experiment, Table 4
# How it was run: as §5
row,Molecule,Human ABCC4 binding
1,B1,+ (Positive (+)=MFI>3× background level)
2,B2,+ (Positive (+)=MFI>3× background level)
3,B3,+ (Positive (+)=MFI>3× background level)
4,B4,+ (Positive (+)=MFI>3× background level)
5,B5,+ (Positive (+)=MFI>3× background level)
6,B6,+ (Positive (+)=MFI>3× background level)
7,B7,+ (Positive (+)=MFI>3× background level)

# Same assay, conditions: Table 4 study, stated in words
row,Molecule,binding to human ABCC4 expressed on cell surface
1,B1,bind to both human and cynomolgus ABCC4
